Columns and labels:
LU124OXAHIp2 cells = test: Oxaliplatin sensitivity, Cell Titer Glo dose response; type: cell-based, human; settings: seven days in culture, oxaliplatin-resistant line
Text: (§1) Cisplatin and its derivatives, including oxaliplatin are the chemotherapeutic standard of care for SCLC. An oxaliplatin-resistant SCLC PDX line was developed due to concerns that cisplatin may not be stable in tissue culture medium (Schuldes et al., 1997, PMID: 9128988). The oxaliplatin-resistant SCLC line was generated by isolating human cells from LU124p2, a SCLC PDX line that had been passaged subcutaneously twice through NOD.SCID mice. LU124p2 tumors were resected from mice after reaching 800-2,000 mm^3, dissociated into single cell suspensions using art-recognized enzymatic digestion techniques (see, for example, US2007/0292414), and depleted of murine cells. The cells were then washed and cultured in 5% oxygen and serum-free medium and immediately treated with 1 μM of oxaliplatin. After seven days of exposure to oxaliplatin, the cells were washed and allowed to recover for two weeks in standard serum-free media with fresh renewal of medium twice a week. After the recovery period, the cells were washed and re-plated into a new flask with 1 μM of oxaliplatin for seven more days, followed by a final wash and a two week recovery period. The resulting cell line was termed LU124OXAHIp2. Single cell suspensions were generated using Versene (Invitrogen). Some of the cells were injected into mice to propagate the LU124OXAHIp2 cell line, while other cells were cultured in vitro to test sensitivity to oxaliplatin.
(§2) Oxaliplatin sensitivity of LU124OXAHIp2 was tested as follows: LU124OXAHIp2 cells were plated onto 96-well plates and treated with a titration of oxaliplatin in serum-free medium as is standard in the art. After seven days in culture, cells were harvested using Cell Titer Glo® (Promega) as per the manufacturer's instructions and dose response curves were obtained. […] To determine whether the resistance was stable, LU124OXAHIp2 cells were passaged again through immunocompromised mice to yield the cell line called LU124OXAHIp3.

LU124OXAHIp3 cells = test: as above; type: cell-based, human; settings: after further passage through mice without oxaliplatin
Text: as §1, §2

[1] = tested on: LU124p2 parental cell line; test: as above; type: cell-based, human; settings: seven days in culture
Text: as §1, §2

mouse SEZ6 = target: T1, mouse SEZ6 (Mus musculus, UniProt Q7TSK2); test: Flow cytometry cross reactivity, Neuro2a cells; type: binding; settings: 5 μg/mL antibody
T1 construct: Neuro2a (ATCC Cat # CCL131), and RIN-m5F (ATCC cat # CRL-11605) cell lines which express mouse SEZ6 and rat SEZ6; host or cells: Neuro2a
Procedure: In this regard flow cytometry was performed using a FACSCanto II as per the manufacturer's instructions in order to confirm that selected SC17 antibody modulators can immunospecifically associate with human SEZ6 and to determine whether the same modulators cross-react with cynomolgus, rat and/or murine SEZ6 in addition to SEZ6L and SEZ6L2. More particularly modulators were tested for cross reactivity to murine SEZ6 and rat SEZ6 by flow cytometry against Neuro2a (ATCC Cat # CCL131), and RIN-m5F (ATCC cat # CRL-11605) cell lines which express mouse SEZ6 and rat SEZ6, respectively. For examining cross reactivity to cynomolgus SEZ6, yeast displaying the extracellular domain of cynomolgus SEZ6 (Boder et al, 1997) were used for flow cytometry analysis.
Briefly 1×10^5 cells per well of Neuro2a, RIN-5mF, or yeast displaying cynomolgus SEZ6 cells were incubated for 30 minutes with 50 μL PBS (2% FCS) buffer with 5 μg/mL antibody. Cells were washed twice with the same buffer and then incubated with 50 μL per sample DyLight 649 labeled goat-anti-mouse IgG, Fc fragment specific secondary diluted 1:200 in PBS buffer. After incubating for 15 minutes cells were washed twice with the PBS buffer and re-suspended in the same with DAPI for flow cytometry analysis of Neuro2a and Rin-m5F or buffer without DAPI for flow cytometric analysis of yeast cells with cSEZ6.

rat SEZ6 = test: Flow cytometry cross reactivity, RIN-m5F cells; type: binding; settings: 5 μg/mL antibody
How it was run: (§3)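 Neuro2a (mouse SEZ6), RIN-m5F (rat SEZ6) or yeast displaying cynomolgus SEZ6 extracellular domain, 1×10^5 cells, incubated 30 min with 5 μg/mL antibody in PBS/2% FCS. Detection by DyLight 649 anti-mouse IgG Fc secondary (1:200, 15 min), then flow cytometry, with DAPI for mammalian cells only.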

SEZ6L2 = target: T2, SEZ6L2 (Homo sapiens, UniProt Q6UXD5, INS830AYEELLDNRKLEV); test: ELISA cross reactivity to family member SEZ6L2; type: binding; parameters: key to binds SEZ6 family member SEZ6L2 (dagger): *: antibodies that bind SEZ6 family members SEZ6L and SEZ6L2 are designated with an asterisk and/or a dagger, respectively; †: antibodies that bind SEZ6 family members SEZ6L and SEZ6L2 are designated with an asterisk and/or a dagger, respectively
T2 construct: IgK signal peptide (N, cleaved yes); made in house; host or cells: HEK-293T or CHO-S
Procedure: To determine cross reactivity to family member proteins, SEZ6L and SEZ6L2, an ELISA-based assay was used. Plates were coated with SEZ6, SEZ6L, or SEZ6L2 proteins at 0.2 μg/mL in PBS overnight. After washing with PBS containing 0.05% (v/v) Tween 20 (PBST), the wells were blocked with 2% (w/v) BSA in PBS (PBSA), 100 μL/well for 1 hour at room temperature. Antibody was then added at 1 μg/mL in 100 μL PBSA for 1 hour at room temperature. After washing with PBST, 100 μL/well HRP-labeled goat anti-mouse IgG diluted 1:2,000 in PBSA for 1 hour at room temperature. The plates were washed and 100 μL/well of the TMB substrate solution (Thermo Scientific 34028) was added for 15 minutes at room temperature. After developing, an equal volume of 2M H2SO4 was added to stop substrate development and analyzed by spectrophotometer at OD 450. […] As discussed above, such pan-SEZ6 antibodies are compatible with the teachings herein and may be used in conjunction with the disclosed methods.

LU100, a SCLC tumor = test: Fab-saporin cytotoxicity in NTX tumor cells; type: cell-based, human; settings: 50 and 500 pM antibody with Fab-saporin, seven days
Procedure: (§4) To corroborate the results of Example 14 and determine whether SEZ6 modulators can mediate toxin internalization and cell killing of human tumor cells (as opposed to engineered cells), mouse lineage-depleted NTX cells were plated and subsequently exposed to anti-SEZ6 antibodies and Fab-saporin.
(§5) NTX tumors were dissociated into a single cell suspension and plated on Primaria™ plates (BD Biosciences) in growth factor supplemented serum free media as is known in the art. After culturing the cells for one day at 37° C./5% CO2/5% O2, they were treated with a control (IgG1, IgG2a or IgG2b) or a murine SEZ6 modulator and Fab-saporin as described in Example 14. After seven days, the modulator-mediated saporin cytotoxicity was assessed by quantifying the remaining number of live cells using Cell Titer Glo.

LU37, a NSCLC tumor = test: Fab-saporin cytotoxicity in NTX tumor cells; type: cell-based, human; settings: antibody with Fab-saporin, seven days
Procedure: as §4, §5

LU80, a SCLC tumor = test: Fab-saporin cytotoxicity in NTX tumor cells; type: cell-based, human; settings: antibody with Fab-saporin, seven days
Procedure: as §4, §5

[2] = tested on: HEK293 cells overexpressing SEZ6; test: In vitro cytotoxicity of ADC; type: cell-based, human
Procedure: The final ADC was analyzed for protein concentration (by measuring UV), aggregation (SEC), drug to antibody ratio (DAR) by reverse phase (RP) HPLC, presence of unconjugated antibody by hydrophobic interaction chromatography (HIC) HPLC, non-proteinaceous materials by RP HPLC and in vitro cytotoxicity using a SEZ6 expressing cell line.

LU117 tumor = test: SCLC NTX tumor volume in immunodeficient mice, humanized ADCs; type: in vivo, human; settings: three injections of 1 mg/kg over seven days
Procedure: (§6) The ability of humanized anti-SEZ6 ADCs to reduce SCLC tumor volume was also tested. Anti-SEZ6 ADCs (hSC17.17, hSC17.24, hSC17.34 and hSC17.46), and the human IgG1 isotype control ADC (huIgG1) were administered to immunodeficient mice bearing various patient derived NTX tumors. Mice were given three injections of 1 mg/kg (indicated by the vertical lines in FIGS. 18C and 18D) over a period of seven days. Following treatment, tumor volumes and mouse weights were monitored until tumors exceeded 800 mm^3 or mice became sick. Complete and durable elimination of tumor mass was achieved by the administration of humanized anti-SEZ6 ADCs in four SCLC tumors.

LU64 tumor = test: as above; type: in vivo, human; settings: three injections of 1 mg/kg over seven days
Procedure: as §6

LU80 tumor = test: as above; type: in vivo, human; settings: three injections of 1 mg/kg over seven days
Procedure: as §6

cynomolgus SEZ6 = test: Flow cytometry cross reactivity, yeast displaying extracellular domain of cynomolgus SEZ6; type: binding; settings: 5 μg/mL antibody
How it was run: as §3

SEZ6 ECD = target: T3, SEZ6 ECD (Homo sapiens, UniProt Q53EL9); test: Fine epitope mapping (phage display peptide library or yeast-displayed SEZ6 ECD mutants); type: binding; settings: epitope conformational (discontinuous) or linear
T3 construct: SEZ6 extracellular domain (amino acids 1-904); expressed in transfected cells; host or cells: yeast (surface display, Cochran et al. protocol)

LU50 LCNEC tumor = test: NTX tumor growth in immunodeficient mice, murine ADCs; type: in vivo, human; settings: three injections of 1 mg/kg intraperitoneally over seven days, NOD/SCID mice
Procedure: Patient-derived NTX tumors were grown subcutaneously in the flanks of female NOD/SCID recipient mice using art-recognized techniques. Tumor volumes and mouse weights were monitored twice per week. When tumor volumes reached 150-250 mm^3, mice were randomly assigned to treatment groups and injected intraperitoneally with SC17-ADC1 or a control MsIgG1-ADC1. Mice were given three injections of 1 mg/kg (indicated by the vertical lines in FIG. 17B) over a period of seven days. Following treatment, tumor volumes and mouse weights were monitored until tumors exceeded 800 mm^3 or mice became sick.

SEZ6 = target: T4, SEZ6 (Homo sapiens, UniProt Q53EL9); test: Immunohistochemistry validation on FFPE cell pellets; type: binding; settings: FFPE sections
T4 construct: produce a cDNA fragment encoding the mature human SEZ6 protein; IgK signal peptide (N); T2A peptide (residue left after ribosomal skipping; GFP is a separate protein) (C); expressed in transfected cells; host or cells: HEK-293T (lentiviral transduction, pCDH-EF1-MCS-T2A-GFP)
Procedure: Immunohistochemistry (IHC) was performed on PDX tumors to confirm that SEZ6 is expressed on the surface of certain PDX tumors; and in order to determine the location of the SEZ6 protein in the tumor architecture. IHC was performed on formalin fixed paraffin embedded (FFPE) tissue sections using an indirect detection method which included murine monoclonal primary antibody against SEZ6 (SC17.140), mouse specific biotin conjugated secondary antibodies, avidin/biotin complex coupled with horse radish peroxidase, and DAB detection (Nakene P K 1968; 16:557-60). […] Specificity was further confirmed by competing signal with a 5 molar excess of purified recombinant SEZ6 on HEK-293T cells overexpressing human SEZ6 and NTX tumors that were shown by IHC to express SEZ6 (data not shown).

T2 sequence (Q6UXD5 with tags, fused parts or gaps with the stated changes): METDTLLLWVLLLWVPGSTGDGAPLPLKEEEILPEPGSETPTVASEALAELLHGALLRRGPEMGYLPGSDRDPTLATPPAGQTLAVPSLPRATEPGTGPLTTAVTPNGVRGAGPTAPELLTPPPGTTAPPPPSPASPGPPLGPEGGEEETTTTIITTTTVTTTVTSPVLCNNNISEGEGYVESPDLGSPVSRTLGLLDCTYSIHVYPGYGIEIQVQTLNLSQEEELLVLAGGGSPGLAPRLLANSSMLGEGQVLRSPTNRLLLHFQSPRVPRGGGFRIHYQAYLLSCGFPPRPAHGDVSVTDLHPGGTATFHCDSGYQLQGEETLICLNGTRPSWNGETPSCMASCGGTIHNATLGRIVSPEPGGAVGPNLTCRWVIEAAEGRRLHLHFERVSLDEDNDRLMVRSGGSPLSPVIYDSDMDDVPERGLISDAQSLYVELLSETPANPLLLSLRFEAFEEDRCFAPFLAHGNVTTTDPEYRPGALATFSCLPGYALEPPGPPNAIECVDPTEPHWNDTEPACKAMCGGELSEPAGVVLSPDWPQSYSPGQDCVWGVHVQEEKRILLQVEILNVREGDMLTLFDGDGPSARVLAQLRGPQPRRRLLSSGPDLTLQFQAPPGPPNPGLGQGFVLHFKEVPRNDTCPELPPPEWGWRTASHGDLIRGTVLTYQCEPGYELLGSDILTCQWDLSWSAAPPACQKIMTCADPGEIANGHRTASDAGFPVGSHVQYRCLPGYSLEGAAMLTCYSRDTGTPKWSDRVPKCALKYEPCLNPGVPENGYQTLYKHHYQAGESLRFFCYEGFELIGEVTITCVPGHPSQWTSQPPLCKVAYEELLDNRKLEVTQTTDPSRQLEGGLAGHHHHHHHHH
Sequence of rat SEZ6 (as listed by the source): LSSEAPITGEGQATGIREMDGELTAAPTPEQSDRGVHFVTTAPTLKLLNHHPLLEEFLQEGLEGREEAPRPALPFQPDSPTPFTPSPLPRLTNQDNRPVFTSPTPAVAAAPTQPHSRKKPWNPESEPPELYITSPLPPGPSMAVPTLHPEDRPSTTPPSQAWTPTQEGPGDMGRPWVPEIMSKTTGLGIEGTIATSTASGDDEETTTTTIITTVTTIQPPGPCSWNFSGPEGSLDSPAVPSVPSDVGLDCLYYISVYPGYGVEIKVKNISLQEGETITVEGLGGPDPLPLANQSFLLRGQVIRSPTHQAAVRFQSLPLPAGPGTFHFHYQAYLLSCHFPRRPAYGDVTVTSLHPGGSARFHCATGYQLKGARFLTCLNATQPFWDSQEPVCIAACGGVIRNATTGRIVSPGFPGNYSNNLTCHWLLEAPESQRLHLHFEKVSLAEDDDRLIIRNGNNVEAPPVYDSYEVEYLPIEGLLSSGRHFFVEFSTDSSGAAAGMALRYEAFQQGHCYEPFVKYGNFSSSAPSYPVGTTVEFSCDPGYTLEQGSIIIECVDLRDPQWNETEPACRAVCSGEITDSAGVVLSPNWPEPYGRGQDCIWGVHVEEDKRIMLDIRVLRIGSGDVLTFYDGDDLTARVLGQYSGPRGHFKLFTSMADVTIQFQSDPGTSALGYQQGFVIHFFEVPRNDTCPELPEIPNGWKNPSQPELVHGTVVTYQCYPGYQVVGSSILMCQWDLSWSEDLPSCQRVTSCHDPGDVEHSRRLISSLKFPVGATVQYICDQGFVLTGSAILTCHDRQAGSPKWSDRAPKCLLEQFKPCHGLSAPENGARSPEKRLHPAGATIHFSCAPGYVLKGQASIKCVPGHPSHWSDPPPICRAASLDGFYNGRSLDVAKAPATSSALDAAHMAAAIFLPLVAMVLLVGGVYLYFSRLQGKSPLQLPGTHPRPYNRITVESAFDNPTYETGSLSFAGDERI
T1 sequence (Q7TSK2 20-991): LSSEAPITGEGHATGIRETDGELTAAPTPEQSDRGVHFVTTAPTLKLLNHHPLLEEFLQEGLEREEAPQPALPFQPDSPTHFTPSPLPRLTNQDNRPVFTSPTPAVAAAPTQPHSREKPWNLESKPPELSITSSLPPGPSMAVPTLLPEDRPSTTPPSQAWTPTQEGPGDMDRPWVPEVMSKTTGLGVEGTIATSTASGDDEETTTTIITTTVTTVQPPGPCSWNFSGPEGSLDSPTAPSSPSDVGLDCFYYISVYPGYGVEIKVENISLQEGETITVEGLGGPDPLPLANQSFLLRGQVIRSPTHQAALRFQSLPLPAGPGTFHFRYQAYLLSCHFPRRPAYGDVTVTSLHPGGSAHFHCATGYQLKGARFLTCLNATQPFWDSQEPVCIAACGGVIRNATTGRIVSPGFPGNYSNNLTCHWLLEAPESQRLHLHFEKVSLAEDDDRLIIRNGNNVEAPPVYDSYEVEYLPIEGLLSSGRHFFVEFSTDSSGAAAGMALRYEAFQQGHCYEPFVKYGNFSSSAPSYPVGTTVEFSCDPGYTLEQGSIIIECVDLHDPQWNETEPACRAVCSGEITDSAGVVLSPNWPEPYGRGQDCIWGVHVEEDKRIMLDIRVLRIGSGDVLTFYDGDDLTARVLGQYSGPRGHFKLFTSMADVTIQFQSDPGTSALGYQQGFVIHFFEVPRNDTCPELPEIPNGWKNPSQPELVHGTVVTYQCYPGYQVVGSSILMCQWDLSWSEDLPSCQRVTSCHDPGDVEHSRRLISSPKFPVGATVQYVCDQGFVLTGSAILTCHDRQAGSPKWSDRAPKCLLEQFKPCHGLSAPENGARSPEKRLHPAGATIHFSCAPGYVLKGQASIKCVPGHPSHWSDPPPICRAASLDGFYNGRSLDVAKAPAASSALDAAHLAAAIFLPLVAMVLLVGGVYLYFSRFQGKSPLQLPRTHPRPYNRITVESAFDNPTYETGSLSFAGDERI

`O=C1[O][Pt]2([NH][C@@H]3CCCC[C@H]3[NH]2)[O]C1=O` [oxaliplatin] was tested, and the IC50 (LU124OXAHIp2 cells) was 2000 to 2500 nM, the “resistance to oxaliplatin, LU124OXAHIp3” value (LU124OXAHIp3 cells) was “Resistance was maintained” and the IC50 [1] was 36 nM.

B1: SC17.6: murine anti-SEZ6 antibody; SC17.6 is duplicate of SC17.16 (antibody, V domains shown)
VH: EVQLQQSGPELMKPGASVKMSCKASGYTFTDYNMYWVKQNQGKSLEWIGEINPNNGGTAYNQKFRGKATLTVDKSSSTAYMELRSLTSEDSAVYYCARYDKGFDYWGQGTTLTVSS
VL: DIQMTQSPASLSVSVGETVTITCRASANINSNLVWYQQKQGKSPQLLVYAATNLADGVPSRFSGSGSGTQYSLKINSLQSEDFGNYYCQHFWGTPRTFGGGTKLEIK
modifications: Murine SC17.16 VH; Murine SC17.16 VL
For B1, the “cross reactivity to murine SEZ6” value (mouse SEZ6) was “cross reactive”, the “cross reactivity to rat SEZ6” value (rat SEZ6) was “cross reactive” and the “cross reactivity with SEZ6L2” value (SEZ6L2; ELISA, antibody 1 μg/mL) was “cross-reactive”. For the same molecule, the “binds SEZ6 family member SEZ6L2 (dagger)” value (SEZ6L2; mark in Table 5) was “SC17.6^†, SC17.28^†, SC17.103, SC17.109, SC17.119,”, the “number of tumor cells, LU100” value (LU100, a SCLC tumor) was “reduction of tumor cells” and the “number of tumor cells, LU37” value (LU37, a NSCLC tumor) was “reduction in the number of tumor cells”. The “number of tumor cells, LU80” value (LU80, a SCLC tumor) was “reduction in the number of tumor cells”.

B2: hSC17.17-ADC1 (conjugate)
VL: EIVLTQSPATLSLSPGERATLSCSASSSVSYMHWYQQKPGQAPRLLIYDTSKLPSGIPARFSGSGSGTDFTLTISSLEPEDFAVYYCQQWSSTPPTFGQGTKLEIK
VH: QVQLVQSGAEVKKPGASVKVSCKASGYTFTDYNMHWVRQAPGQGLEWMGEINPNIGGTGYNQKFKGRVTMTRDTSISTAYMELSRLRSDDTAVYYCARTYSYYSYEFAYWGQGTLVTVSS
In the case of B2, the IC50 [2] is reported as 11 nM, the “tumor volume, LU117” value (LU117 tumor) is reported as “reduction” and the “tumor volume, LU64” value (LU64 tumor) is reported as “elimination”. For the same molecule, the “tumor volume, LU80” value (LU80 tumor) was “reduction”.

B3: SC17.46 (antibody, V domains shown)
VH: QVQLQQPGAELVKPGASMKLSCKASGYTFTSYWINWVKQRPGQGLEWIGNIFPDTTTTNYNEKFKSKATLTVDTSSSTAYMQLSSLTSDDSAVYYCAREYYDGTYDAMDYWGQGTSVTV
VL: SFVMTQTPKFLLVSAGDRVTITCKASQSVNNDVAWYQQKPGQSPKLLIYYASNRYTGVPDRFTGSGYGTDFTFTISTVQAEDLAVYFCQQDYSSPRTFGGGTKLEIK
modifications: Murine SC17.46 VH; Murine SC17.46 VL
In the case of B3, the “cross reactivity to rat SEZ6” value (rat SEZ6) is reported as “lack of cross reactivity”, the “cross reactivity to cynomolgus SEZ6” value (cynomolgus SEZ6) is reported as “lack of cross reactivity” and the Discontinuous (SEZ6 ECD) is reported as “Yes”. For the same molecule, the “duration of tumor growth suppression, LU50” value (LU50 LCNEC tumor) was 35 days.

B4: SC17.140: murine anti-SEZ6 antibody (antibody, V domains shown)
VH: EVQLQQSGPELMKPGASVKMSCKASGYTFTDYNMHWVKQNQGKSLEWIGEINPNTGGTGYNQKFKGKATLTVDKFSSTAFIELRSLTSEDSAIYYCTRGGYDHYWYFDVWGAGTTVTVSS
VL: QIVLTQSPAIMSASPGEKVTMTCSASSSVSYMHWYQQKSGTSPKRWIYDTSKLASGVPARFSGSGSGTSYSLTISSMEAEDAATYYCQQWSSTPPTFGSGTKLEIK
modifications: Murine SC17.140 VH; Murine SC17.140 VL
notes: murine anti-SEZ6 antibody
B4 was tested, and the Discontinuous (SEZ6 ECD) was “Yes” and the “IHC staining of HEK-293T cell pellets overexpressing SEZ6 compared to naïve HEK-293T cell pellets” value (SEZ6) was “specific staining”.

Source: US9993566B2, “SEZ6 modulators and methods of use” (AbbVie Stemcentrx LLC, priority 2013, dated 2018)
